Test results: IntAct's records for PubMed 20169075

B1: Sec-independent protein translocase protein TatC (Escherichia coli (strain K12)), P69423 (parent)
chain: MSVEDTQPLITHLIELRKRLLNCIIAVIVIFLCLVYFANDIYHLVSAPLIKQLPQGSTMIATDVASPFFTPIKLTFMVSLILSAPVILYQVWAFIAPALYKHERRLVVPLLVSSSLLFYIGMAFAYFVVFPLAFGFLANTAPEGVQVSTDIASYLSFVMALFMAFGVSFEVPVAIVLLCWMGITSPEDLRKKRPYVLVGAFVVGMLLTPPDVFSQTLLAIPMYCLFEIGVFFSRFYVGKGRNREEENDAEAESEKTEE
B2: Tat proofreading chaperone DmsD (Escherichia coli (strain K12)), P69853 (parent)
chain: MTHFSQQDNFSVAARVLGALFYYAPESAEAAPLVAVLTSDGWETQWPLPEASLAPLVTAFQTQCEETHAQAWQRLFVGPWALPSPPWGSVWLDRESVLFGDSTLALRQWMREKGIQFEMKQNEPEDHFGSLLLMAAWLAENGRQTECEELLAWHLFPWSTRFLDVFIEKAEHPFYRALGELARLTLAQWQSQLLIPVAVKPLFR
B3: Dimethyl sulfoxide reductase DmsA (Escherichia coli (strain K12)), P18775 (parent)
chain: MKTKIPDAVLAAEVSRRGLVKTTAIGGLAMASSALTLPFSRIAHAVDSAIPTKSDEKVIWSACTVNCGSRCPLRMHVVDGEIKYVETDNTGDDNYDGLHQVRACLRGRSMRRRVYNPDRLKYPMKRVGARGEGKFERISWEEAYDIIATNMQRLIKEYGNESIYLNYGTGTLGGTMTRSWPPGNTLVARLMNCCGGYLNHYGDYSSAQIAEGLNYTYGGWADGNSPSDIENSKLVVLFGNNPGETRMSGGGVTYYLEQARQKSNARMIIIDPRYTDTGAGREDEWIPIRPGTDAALVNGLAYVMITENLVDQAFLDKYCVGYDEKTLPASAPKNGHYKAYILGEGPDGVAKTPEWASQITGVPADKIIKLAREIGSTKPAFISQGWGPQRHANGEIATRAISMLAILTGNVGINGGNSGAREGSYSLPFVRMPTLENPIQTSISMFMWTDAIERGPEMTALRDGVRGKDKLDVPIKMIWNYAGNCLINQHSEINRTHEILQDDKKCELIVVIDCHMTSSAKYADILLPDCTASEQMDFALDASCGNMSYVIFNDQVIKPRFECKTIYEMTSELAKRLGVEQQFTEGRTQEEWMRHLYAQSREAIPELPTFEEFRKQGIFKKRDPQGHHVAYKAFREDPQANPLTTPSGKIEIYSQALADIAATWELPEGDVIDPLPIYTPGFESYQDPLNKQYPLQLTGFHYKSRVHSTYGNVDVLKAACRQEMWINPLDAQKRGIHNGDKVRIFNDRGEVHIEAKVTPRMMPGVVALGEGAWYDPDAKRVDKGGCINVLTTQRPSPLAKGNPSHTNLVQVEKV
partner: B1 chain
B4: Dimethyl sulfoxide reductase DmsA (Escherichia coli (strain K12)), P18775 (parent)
chain: B3 chain
partner: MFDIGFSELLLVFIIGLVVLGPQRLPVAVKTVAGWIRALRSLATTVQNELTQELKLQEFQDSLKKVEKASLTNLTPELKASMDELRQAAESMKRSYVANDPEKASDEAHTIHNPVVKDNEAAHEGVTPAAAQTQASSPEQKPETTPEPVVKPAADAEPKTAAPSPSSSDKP

Variants of: B1
Conditions: with dmsa_ecoli dmsA, P18775

Row | effect of a mutation on the interaction | Variant
1 | decreasing interaction | P48A
2 | decreasing interaction | E103R

Variants of: B1
Conditions: with dmsd_ecoli dmsD

Row | effect of a mutation on the interaction | Variant
3 | decreasing interaction | P48A
4 | disrupting interaction | E103R

Variants of: B2
Conditions: with dmsa_ecoli dmsA

Row | effect of a mutation on the interaction | Variant
5 | increasing interaction | W72H;L75Y

Variants of: B3
Conditions: with tatc_ecoli tatC, P69423

Row | effect of a mutation on the interaction | Variant
6 | increasing interaction | R16K;R17K

Variants of: B4
Conditions: with tatb_ecoli tatB

Row | effect of a mutation on the interaction | Variant
7 | increasing interaction | R16K;R17K
